Laboratory results: PMC5308896, “A conformational switch regulates the ubiquitin ligase HUWE1” (eLife, 2017)
Ends that are not written are not given here.

Legend:
Test in all cases: fluorescence polarisation; apparent KD; constant 1 μM TAMRA-labelled p14ARF (45–64) peptide titrated with HUWE1 protein; 25°C, 20 mM HEPES pH 8.0, 150 mM NaCl, 10% glycerol, 1 mM EDTA, 5 mM DTT; three independent experiments
Conditions in all cases: both partners purified
HUWE1 (3759–4374) = molecular target: T1, HUWE1 (3759–4374) (human, UniProt Q7Z6Z7 3759-4374)
T1 construct: also called extended C-terminal HUWE1 fragment; source: LOBSTR RIL cells, purified (IMAC, gel filtration)
T1 sequence (looked up): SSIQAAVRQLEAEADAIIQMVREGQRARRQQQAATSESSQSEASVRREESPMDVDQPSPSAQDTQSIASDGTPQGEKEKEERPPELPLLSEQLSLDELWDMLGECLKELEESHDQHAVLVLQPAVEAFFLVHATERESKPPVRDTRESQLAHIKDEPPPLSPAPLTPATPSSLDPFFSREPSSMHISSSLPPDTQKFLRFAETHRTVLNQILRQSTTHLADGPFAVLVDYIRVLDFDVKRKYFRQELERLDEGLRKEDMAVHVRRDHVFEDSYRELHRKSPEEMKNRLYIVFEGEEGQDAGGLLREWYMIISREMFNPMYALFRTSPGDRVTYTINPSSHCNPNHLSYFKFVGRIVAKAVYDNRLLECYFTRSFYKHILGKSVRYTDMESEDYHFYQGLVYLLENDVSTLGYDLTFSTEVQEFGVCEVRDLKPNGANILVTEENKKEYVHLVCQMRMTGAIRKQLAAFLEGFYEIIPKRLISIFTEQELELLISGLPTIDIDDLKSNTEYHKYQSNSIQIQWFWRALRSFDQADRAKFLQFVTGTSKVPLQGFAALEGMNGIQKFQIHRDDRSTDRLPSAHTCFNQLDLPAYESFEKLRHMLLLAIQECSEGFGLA

HUWE1 (3843–4374) = molecular target: T2, HUWE1 (3843–4374) (human, UniProt Q7Z6Z7 3843-4374)
T2 construct: source: LOBSTR RIL cells, purified (IMAC, gel filtration)
T2 sequence (looked up): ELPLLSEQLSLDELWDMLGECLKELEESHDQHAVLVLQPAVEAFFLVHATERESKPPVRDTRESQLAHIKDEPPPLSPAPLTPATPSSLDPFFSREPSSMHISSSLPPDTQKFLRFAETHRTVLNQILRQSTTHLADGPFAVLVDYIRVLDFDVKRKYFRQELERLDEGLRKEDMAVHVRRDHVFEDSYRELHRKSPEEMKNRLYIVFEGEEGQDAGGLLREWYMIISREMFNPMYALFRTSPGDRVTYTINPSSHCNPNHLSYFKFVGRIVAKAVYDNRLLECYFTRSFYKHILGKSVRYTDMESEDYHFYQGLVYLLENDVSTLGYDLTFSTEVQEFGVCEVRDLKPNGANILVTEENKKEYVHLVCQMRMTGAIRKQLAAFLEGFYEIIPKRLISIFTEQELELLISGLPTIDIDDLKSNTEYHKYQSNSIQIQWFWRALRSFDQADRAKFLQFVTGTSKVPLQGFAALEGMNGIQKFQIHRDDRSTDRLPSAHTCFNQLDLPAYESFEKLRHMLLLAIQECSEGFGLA

[1] = molecular target: T3, MBP-tagged activation segment of HUWE1 (residues 3843–3902) (human, UniProt Q7Z6Z7 3843-3902)
T3 construct: pETM41: N-terminal TEV protease-cleavable MBP-tag, C-terminal 3C protease-cleavable His6-tag; source: E. coli BL21(DE3), purified (IMAC, gel filtration); not shown: MBP, N-terminal, kept; His6, C-terminal, kept
T3 sequence (looked up): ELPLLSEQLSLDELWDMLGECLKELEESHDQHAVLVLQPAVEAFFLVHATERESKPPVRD

- Kd (HUWE1 (3759–4374)): 7.7 ± 0.4 µM
- Kd (HUWE1 (3843–4374)): 5.2 ± 0.2 µM
- Kd [1]: 3.6 ± 0.2 µM
B1: fluorophor-labeled p14ARF-derived peptide (residues 45–64), TAMRA-labelled (peptide)
peptide: LVLMLLRSQRLGQQPLPRRPK(TAMRA)
notes: p14ARF (alternative reading frame product of CDKN2A), human, residues 45–64; additional lysine residue at the C-terminus that carries the TAMRA label (told in words); also called p14ARF-peptide; p14ARF (45-64); source: synthetic peptide, bought: Elim Biopharm
